The target in assay [1] is HIV-1 Gag (Pr55), immature Gag lattice of NL4-3 VLPs (HIV-1 (NL4-3)).
Assay [2] has the same target. This is another data set of the same source.
For assay [3] the target is unchanged. The conditions noted are these: scale: mol HA-Halo-gt-EnvCT/mol NL4-3.
The target is the same in assay [4]. Put plainly: co-sedimentation; immature VLPs from HEK293T stripped of membrane with 0.05% NP-40 (Env trimers) or 0.075% NP-40 (mCD4 chimeras) or PBS, 15 minutes at 25°C, sedimented through 20% sucrose at 60,000 x g, 4°C, 1 hour; pellets blotted for gp41, CD4 and Pr55.

Consider “monomeric CD4-EnvCT 712YA chimera (from UniProt P01730 26-420)”, for which, in assay [1], the incorporation into VLPs released from transduced A2.01 T cells (western blot), mCD4-EnvCT relative to mCD4-ΔCT amounted to 16.7 fold.
On to HA-Halo-gt-EnvCT (712YA) chimera, for which the double exponential loss curve of the competitive inhibition of 712YA Env incorporation into VLPs; half-maximal inhibition in assay [2] is 0.6 gp41/Pr55. Further, the restriction of the incorporation of Env-712YA trimers into VLPs (gp41/Pr55 by western blot; HEK293T co-transfected with chimera and NL4-3 pol(-) Env-712YA plasmids at 0 to 1.375 mol/mol) in assay [3] is 0.3.
Substance “HIV-1 WT Env (NL4-3), gp120/gp41 trimer (complex)” displayed a percent co-sedimenting with Gag after detergent in assay [4] of 10%.

The record behind these values is PMC12090761.
